Results reported in the supplement of paper PMC12042874.
± gives the uncertainty stated by the source.

Assay: amyloid nucleation score (Sup35N fusion, yeast selection) (log enrichment); library NNK2; higher = more nucleation; inactive = no reads after selection
Outline: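 Output and input plasmid inserts were sequenced by Illumina after psi-negative yeast carrying Sup35N fused to peptides of 20 random codons had been induced 24 hours with 100 μM copper sulfate and grown 7 days at 30°C on medium lacking adenine and uracil. The nucleation score is the DiMSum log enrichment of output over input reads, centred on the mode score of non-aggregating sequences. Sequences with under 100 input reads were excluded.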

| Substance | amyloid nucleation score |
| --- | --- |
| SHFRLCGGVWSSGLMCHGCF | 1.61 ± 0.55 |
| VGCFTRSIGHAM | 0.257 ± 0.23 |
| WFIGS | inactive |
| RHTSMSGCMTVIMTGCEIPR | 1.13 ± 0.39 |
| YTMWGWLAAMVREMETLGSK | -0.284 ± 0.61 |
| GTRSGSSDV | 0.31 ± 0.5 |
| ANCATSVLCCSGCV | 0.878 ± 0.14 |
| FSSSNSIFKFVLNVRCTGVK | 5.045 ± 0.049 |
| CLKEMVKVCRGWWRANGSGR | 0.433 ± 0.46 |
| GCRAVRTWEPIGVAGEYFGS | 6.232 ± 0.037 |
| IYQPCCCV | 0.76 ± 0.51 |
| GGSKTRLFL | -0.263 ± 1.1 |
| SHGVLRMAKIRSWGFDVTVM | 0.02 ± 0.74 |
| QLDRCLILPWTFSWCMDCVL | 4.92 ± 0.053 |
| KGNTIKSCSRMMLHRQHVW | -0.485 ± 0.45 |
| RWTWNSEVRNLRIFASYPGC | -0.418 ± 1.1 |
| AIWVYRPLVIQGTFGIRPA | 6.15 ± 0.08 |
| CFKDYQIGSCKQSL | -0.499 ± 0.76 |
| RCNMLDRYPSVGRNPVLMVV | 0.063 ± 1.1 |
| GVSVMKVLYLCTIDKALCFG | 6.06 ± 0.068 |
| GNYFPYFQVWSISRFLMSIS | inactive |
| KDHRSLSGRDMFRGTLVVVM | 0.328 ± 0.19 |

| Substance | amyloid nucleation score |
| --- | --- |
| RIYRRNQWVPGGDYSKGINL | -0.892 ± 0.76 |
| GLWVV | -1.02 ± 1.1 |
| FYGGDA | 0.005 ± 0.39 |
| YVLQYTVKSDVWGTKAIRRP | 0.007 ± 0.79 |
| VIYSYMSGIVYGVMRSSPFW | inactive |
| IWSRLVVLRGRAGSDSSKNS | -0.044 ± 0.5 |
| CSYWNVGYREVRMTDDDTMG | -0.975 ± 0.53 |
| CTCFGRVRLQKSIWGKRLIH | -0.383 ± 0.56 |
| ECNTSVLSTWARDLVSPVLT | 4.3 ± 0.053 |
| SGHISYG | 0.192 ± 0.56 |
| GSARCNTSFCCQQVYFYGCG | 8.486 ± 0.064 |
| LLTRLKGGPPARAPHSTSGL | 1.91 ± 0.13 |
| STWPCNQPSYVSV | 0.204 ± 0.28 |
| SGVLHRCEIPVLRACRLLL | 0.425 ± 0.37 |
| WLYSIVCCDRKQSRSGMCDL | 4.96 ± 0.069 |
| VSPAHPNYFPISP | -0.889 ± 1.1 |
| IGSWVVEFGRFGYCFHGVID | 3.19 ± 0.089 |
| ELCRCITFGLVCTFACYWVC | 0.592 ± 0.2 |
| SHISDVSKD | 0.679 ± 0.26 |
| SDCRWNCVSMEWIDPTHEDK | -0.518 ± 0.2 |
| LYFWPLTFRSGHCCGLSQVK | 1.16 ± 0.61 |
| MIWGVT | 1.01 ± 0.4 |

| Substance | amyloid nucleation score |
| --- | --- |
| RFCRHRMRGILP | 1.06 ± 0.17 |
| SFKSDSFTDYYLIDLAITRG | -0.046 ± 1 |
| THVECALMTYPDVYSDEGFI | -0.001 ± 0.32 |
| LRGLSAPACKYQWQDEMYD | -0.628 ± 0.45 |
| GVSSKKV | 4.768 ± 0.047 |
| YFVSSC | -1.23 ± 0.35 |
| CVMHVRHHYGDI | inactive |
| RAMHQDSVFVRWVEPPYCWC | -0.024 ± 1 |
| HTQSLVRVCWIYIRLPRSTP | 0.393 ± 0.2 |
| SGPVVQDKVYHRVNYF | -0.369 ± 1.1 |
| MSPLH | -0.181 ± 0.39 |
| FVLRIDNC | 0.735 ± 0.39 |
| SWYLFGPDR | -0.433 ± 0.54 |
| FTCFFLVLRVKSLLMVSAVG | 6.34 ± 0.079 |
| QSRQFLSVYFYLFFLFFSFL | inactive |
| SHCCGFLRGGWNRAQFGYRT | 3.38 ± 0.049 |
| YTAFLFICTRALLMPDMKFL | inactive |
| CFFLYIRHFAMYCA | 1.65 ± 0.17 |
| GFRVVCHILALCRYGTCLEI | -0.608 ± 0.35 |
| NINLA | inactive |
| AIASLTRTFSA | 0.167 ± 0.42 |
| STWKNDHTHSCASWAKVCIT | -0.138 ± 0.34 |

| Substance | amyloid nucleation score |
| --- | --- |
| IYCCISEWSNHTWV | 6.175 ± 0.036 |
| WRLCVWPRCGTAKLS | 0.24 ± 0.32 |
| LNDWNFLVMVHISIVIRILF | inactive |
| GSWLIEMCEVVSNSMTSMGP | 1.29 ± 0.3 |
| GHVQSWGCVVLHEFSSISPE | 5.488 ± 0.05 |
| FLFNVSGLYIGWSLVPTNLD | -0.33 ± 0.76 |
| SARVSWGCWHFAMYSRCIRQ | inactive |
| VINLDKLIFVLEDNCIVFWE | 6.374 ± 0.023 |
| SVTCSSRCVSQRRFLVGPWN | -1.35 ± 0.41 |
| SLFARRMWGGTVKWYNDRTY | -0.632 ± 0.76 |
| GLGYLMINYMRISWWAMYCA | 0.235 ± 0.61 |
| NCLYICVCGLCMFQKLRC | -0.246 ± 0.76 |
| LNIFI | 2.96 ± 0.062 |
| LTGLVSLPRCWTIWVPWREG | 1.43 ± 0.25 |
| SPSSQSKVISCLRVS | 0.611 ± 0.81 |
| NGTLRAFVIKKVRIIDSRQV | 4.09 ± 0.076 |
| LDIITGLSSISGTHIFGSSP | -0.627 ± 0.78 |
| TFRAMAFVIFAGWLIRYDRR | inactive |
| GCHICHRWIKSVYRSNHALM | 0.291 ± 0.33 |
| NGDVTVMITF | 5.463 ± 0.031 |
